Data reported in patent US20210030841A1 (KEROS THERAPEUTICS, published 2021).

T1: growth differentiation factor 11 (GDF11) (UniProt O95390 299-407)
T1 construct: the embodiments speak of human GDF-11
T1 sequence (looked up): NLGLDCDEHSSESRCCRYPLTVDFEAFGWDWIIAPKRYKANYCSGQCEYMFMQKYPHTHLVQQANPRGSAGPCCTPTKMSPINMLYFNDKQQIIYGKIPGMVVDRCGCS

T2: Activin A (UniProt P08476 311-426)
T2 construct: the embodiments speak of human activin A
T2 sequence (looked up): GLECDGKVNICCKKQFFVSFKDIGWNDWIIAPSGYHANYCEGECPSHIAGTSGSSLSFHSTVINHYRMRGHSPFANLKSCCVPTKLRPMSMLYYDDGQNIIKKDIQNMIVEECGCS

T3: Activin B (UniProt P09529 293-407)
T3 construct: the embodiments speak of human activin B
T3 sequence (looked up): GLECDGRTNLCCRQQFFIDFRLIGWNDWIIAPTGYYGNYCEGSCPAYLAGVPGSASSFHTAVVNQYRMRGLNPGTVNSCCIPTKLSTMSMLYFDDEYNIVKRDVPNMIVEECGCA

T4: BMP-9 (UniProt Q9UK05 320-429)
T4 construct: the embodiments speak of human BMP9; also called bone morphogenetic protein 9
T4 sequence (looked up): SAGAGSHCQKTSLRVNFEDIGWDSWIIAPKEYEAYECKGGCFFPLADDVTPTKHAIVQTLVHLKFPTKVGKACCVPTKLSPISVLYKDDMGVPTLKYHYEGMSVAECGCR

B1: ActRIIa/b+ variant (SEQ ID NO: 150) (receptor, not shown: a dimerising Fc or GST)
chain: GAILGRSETQECLFYNANWELERTNQTGVERCEGEKDKRLHCYATWRNISGSIEIVAKGCWLDDFNCYDRTDCVETEENPQVYFCCCEGNMCNEKFSYFPEMEVTQPTS
B2: ActRIIa/bΔ9 min variant (SEQ ID NO: 6) (receptor, not shown: a dimerising Fc or GST)
chain: AILGRSETQECLFYNANWELDRTNQTGVEPCEGEKDKRLHCFATWKNISGSIEIVKKGCWLDDINCYDRTDCVETKENPQVYFCCCEGNMCNEKFSYFPEMEVTQPTS
notes: Engineered variant of the human ActRIIa extracellular portion

Tests used:
Experiment in all cases: SPR, Biacore 3000; receptor captured on chip, ligand in solution
[1] = molecular target: T1, growth differentiation factor 11 (GDF11)
Source text: (§1) The Biacore 3000 was used to measure the kinetics of the interactions between the ActRIIa variants and the ligands Activin A, Activin B, growth differentiation factor 11 (GDF11), and BMP-9. ActRIIa variants were transiently expressed in HEK293 cells and purified from the conditioned media using Protein-A Sepharose chromatography. The ActRIIa variants were immobilized on the chip (CM4 or CM5) with capture antibodies ([…]) in flow cells 2-4 to ensure proper orientation. Flow cell 1 was used as a reference cell to subtract any nonspecific binding and bulk effects. HBS-EP+ buffer from GE Healthcare™ was used as a running buffer. Each ligand was run in a concentration series at 40 μl/min to avoid mass transport effects. The data was analyzed using Scrubber2 by BioLogic™ Software to calculate the KD of each interaction (Table 5).

Activin A = molecular target: T2, Activin A
Source text: as §1

Activin B = molecular target: T3, Activin B
Source text: as §1

BMP-9 = molecular target: T4, BMP-9
Source text: as §1

binding result [1] | Kd (Activin A) [nM] | Kd (Activin B) [nM] | Kd [1] [nM] | Kd (BMP-9) [nM] | Binder
binds | – | – | – | – | B1
– | 0.31 | 0.088 | 0.114 | 17 | B2
